In patent US20240317858A1 (Adimab, published 2024) one finds Kd and EC50 data, which are given here for 5 molecules.

Positions count from the first letter of the chain named.

In experiment [1] the target is T1, Human CD3εδ Fc heterodimer (Hu CD3ε Fc + CD3δ Fc-HIS) (human, UniProt P07766 22-126; P04234 22-100).
T1 construct: range 22-126;range 22-100; Made in HEK 293 cells with a heterologous signal peptide; also called Hu CD3εδ-Fc; CD3εδ Fc-HIS heterodimer; not shown: Fc; Fc followed by HIS tag
T1 sequence (P07766 22-126, stated change not applied, form in doubt, chain 1 of 2): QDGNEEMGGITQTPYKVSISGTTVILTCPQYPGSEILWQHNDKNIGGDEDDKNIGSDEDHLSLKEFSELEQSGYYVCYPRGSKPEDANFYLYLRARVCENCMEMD
T1 sequence (P04234 22-100, stated change not applied, form in doubt, chain 2 of 2): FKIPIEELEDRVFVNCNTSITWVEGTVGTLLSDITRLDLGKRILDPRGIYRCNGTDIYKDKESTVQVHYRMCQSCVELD
Briefly: BLI (Octet), Fab monovalent, pH 6.0. On the technique in general: In BLI a coated tip is dipped into the sample, and binding shifts an interference pattern.

For experiment [2], the target named is T2, Cynomolgus CD3εδ Fc heterodimer (Cy CD3ε Fc + CD3δ Fc-HIS) (cynomolgus, UniProt Q95LI5 22-117; Q95LI8 22-100).
T2 construct: range 22-117;range 22-100; Made in HEK 293 cells with a heterologous signal peptide; also called Cy CD3εδ-Fc; cyno CD3εδ Fc; not shown: Fc; Fc followed by HIS tag
T2 sequence (Q95LI5 22-117, stated change not applied, form in doubt, chain 1 of 2): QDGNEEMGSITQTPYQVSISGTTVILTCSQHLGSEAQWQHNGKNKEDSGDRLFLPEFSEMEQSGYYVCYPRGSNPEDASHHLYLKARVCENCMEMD
T2 sequence (Q95LI8 22-100, stated change not applied, form in doubt, chain 2 of 2): as the sequence (P04234 22-100, stated change not applied, form in doubt, chain 2 of 2) above, with I5V, N15K, I20V, S32T, D33N, I34N, T64A, S74N counted along it
Kind of experiment: BLI (Octet), Fab monovalent, pH 6.0.

For experiment [3], the target named is T1, Human CD3εδ Fc heterodimer (Hu CD3ε Fc …). Kind of experiment: BLI (Octet), Fab monovalent, pH 7.4.
Experiment [4] concerns the target T2, Cynomolgus CD3εδ Fc heterodimer (Cy …). Briefly: BLI (Octet), Fab monovalent, pH 7.4.
The target in experiment [5] is T3, Rhesus CD3εδ Fc heterodimer (rhesus).
T3 construct: extracellular domain; also called Rh CD3εδ-Fc
Briefly: BLI (Octet), Fab monovalent, pH 7.4.

Experiment [6] addresses T1, Human CD3εδ Fc heterodimer (Hu CD3ε Fc …). Briefly: BLI (Octet), CD3εδ Fc on AHC sensor, 100 nM Fab. As for the experimental part:
(§1) Affinity of the anti-CD3 antibodies for CD3 was determined by measuring their kinetic constants (kₒₙ, koff, KD) on ForteBio Octet®. ForteBio affinity measurements were performed generally as previously described (Estep et al., MAbs. 2013 5(2):270-8). […] Sensors were equilibrated off-line in assay buffer for 30 minutes and then monitored on-line for 60 seconds for baseline establishment. For monovalent binding measurement, sensors with loaded CD3εδ Fc were exposed to 100 nM anti-CD3 Fab, as further described in Example 2 below] for 3 minutes, afterwards they were transferred to assay buffer for 3 minutes for off-rate measurement. Kinetics data were fit using a 1:1 binding model in the data analysis software provided by ForteBio.

Experiment [7] addresses T2, Cynomolgus CD3εδ Fc heterodimer (Cy …). Kind of experiment: BLI (Octet), CD3εδ Fc on AHC sensor, 100 nM Fab. As for the experimental part:
as §1

The target in experiment [8] is T1, Human CD3εδ Fc heterodimer (Hu CD3ε Fc …). Briefly: SPR (Biacore), Fab over immobilized CD3εδ Fc, pH 6.0.
Experiment [9] deals with T2, Cynomolgus CD3εδ Fc heterodimer (Cy …). Described as above.
Experiment [10] addresses T1, Human CD3εδ Fc heterodimer (Hu CD3ε Fc …). Kind of experiment: SPR (Biacore), Fab over immobilized CD3εδ Fc, pH 7.4.
The target in experiment [11] is T2, Cynomolgus CD3εδ Fc heterodimer (Cy …). The description is as above.
Experiment [12] addresses T1, Human CD3εδ Fc heterodimer (Hu CD3ε Fc …). Briefly: SPR (Biacore), Fab over Hu CD3εδ-Fc; sensorgram inset tied by a line to the filled square (parent antibody) labelled A001; pH not given on the sheet.
For experiment [13] the target is unchanged. Briefly: SPR (Biacore), Fab over Hu CD3εδ-Fc; sensorgram inset tied by a line to the filled square (parent antibody) labelled A002; pH not given on the sheet. In general terms: In SPR one partner is held on a chip, and binding of the other changes the refractive index at the surface.
Experiment [14] has the same target. Kind of experiment: SPR (Biacore), Fab over Hu CD3εδ-Fc; sensorgram inset labelled V013, tied by a line to an open square (PSR-optimized antibody); pH not given on the sheet.
Experiment [15] shares this target. Kind of experiment: SPR (Biacore), Fab over Hu CD3εδ-Fc; sensorgram inset labelled V007, tied by a line to an open square (PSR-optimized antibody); pH not given on the sheet.
The target in experiment [16] is T4, Human CD3 on CD3+ Jurkat cells (human, UniProt P07766 23-207).
T4 construct: whole, on cells; Target is the endogenous CD3 complex on cells; also called Human CD3+ Jurkat cells
T4 sequence (P07766 23-207): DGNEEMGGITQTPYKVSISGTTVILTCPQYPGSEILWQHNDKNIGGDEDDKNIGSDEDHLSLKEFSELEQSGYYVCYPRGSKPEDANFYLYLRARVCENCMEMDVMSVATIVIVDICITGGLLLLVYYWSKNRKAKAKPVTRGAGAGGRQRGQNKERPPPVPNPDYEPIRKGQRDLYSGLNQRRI
Kind of experiment: flow cytometry, Fab titration. The procedure:
Further FACS analysis was conducted using 3-fold serial dilutions of anti-CD3 antibody Fab fragments. Fab fragments were generated from whole IgG antibodies by papain digestion and purified over KappaSelect or CaptureSelect IgG-CH1 (GE Healthcare LifeSciences) before preparation of serial dilutions. Binding to human CD3+ Jurkat cells and Cynomolgus monkey CD3 HSC-F cells was assessed with each diluted sample and results were used to build a titration curve and calculate half maximal effective concentration (EC50) values for Fab binding.
In general terms: Flow cytometry measures light scatter and fluorescence of single cells or particles in a stream.

B1: Antibody No. A001 (ADI-26906) Fab (Fab, V domains shown)
VH: QVQLVQSGAEVKKPGASVKVSCKASGFNIKDYYMHWVRQAPGQRLEWMGWIDLENANTIYDAKFQGRVTITRDTSASTAYMELSSLRSEDTAVYYCARDAYGRYFYDVWGQGTLVTVSS
VL: DIVMTQSPDSLAVSLGERATINCKSSQSLLNARTGKNYLAWYQQKPGQPPKLLIYWASTRESGVPDRFSGSGSGTDFTLTISSLQAEDVAVYYCKQSYSRRTFGGGTKVEIK
notes: Fab by papain digestion of the IgG1
The term Kd denotes a measure of binding affinity in units of concentration. As to B1, the Kd in experiment [1] was determined as 5.8 nM; in experiment [2], 5.9 nM; in experiment [3], 6 nM; in [4] it was 5.9 nM; in experiment [5], 6.1 nM; in [6] it was 2.81 nM. Also, the equilibrium dissociation constant (Kd) in experiment [7] turned out to be 2.9 nM; in [8] it was 1.3 nM; in experiment [9], 1.9 nM; in [10] it was 1.1 nM; in experiment [11], 1.1 nM; in experiment [12] it was 2 nM.

B2: Antibody No. A002 (ADI-50024) Fab (Fab, V domains shown)
VH: B1 VH with M48I, I59V
VL: B1 VL with T5S, E61S, K95V, S99F
notes: as for B1
Regarding B2, the equilibrium dissociation constant (Kd) was determined as 1.3 nM in experiment [1]; 1.7 nM in experiment [2]; 1 nM in [3]; 1.3 nM in [4]; 1.2 nM in [5]; 0.5 nM in [6]. For the same molecule, the equilibrium dissociation constant (Kd) stood at 0.57 nM in experiment [7]; 0.31 nM in [8]; 0.2 nM in [9]; 0.059 nM in experiment [10]; 0.076 nM in experiment [11]; 0.244 nM in experiment [13].

B3: Antibody No. V013 (ADI-70330) Fab (Fab, V domains shown)
VH: B1 VH with K30D, M48I, I59V, Y60D
VL: B1 VL with T5S, E61S, K95V, S99F
notes: as for B1
In the case of B3, the dissociation constant (Kd) amounted to 1.6 nM in experiment [1]; 1.9 nM in experiment [2]; 2.4 nM in experiment [3]; 2.4 nM in experiment [4]; 2.5 nM in experiment [5]; 1.16 nM in experiment [6]. In addition, the Kd amounted to 1.23 nM in experiment [7]; 1.6 nM in experiment [8]; 0.27 nM in [9]; 0.18 nM in experiment [10]; 0.22 nM in experiment [11]; 0.681 nM in experiment [14].

B4: Antibody No. V007 (ADI-67450) Fab (Fab, V domains shown)
VH: B1 VH with K30D, Y60D
VL: B1 VL
notes: as for B1
With B4, the Kd in [1] came out at 6.9 nM; in experiment [2], 6.9 nM; in experiment [3], 7.4 nM; in experiment [4], 8.7 nM; in experiment [5] it was 9.2 nM; in experiment [6], 5.39 nM. The Kd in experiment [7] was found to be 5.03 nM; in experiment [8], 2.8 nM; in experiment [9], 2.1 nM; in [10], 4 nM; in experiment [11], 2.7 nM; in experiment [15], 3.7 nM.

B5: Antibody No. V011 (ADI-70328) Fab (Fab, V domains shown)
VH: B1 VH with K30D, M48I, A56D, I59V
VL: B1 VL with T5S, E61S, K95V, S99F
notes: as for B1
As a reminder, the EC50 is the concentration at which the effect is half-maximal. Low readings indicate a more potent agent, high ones a less potent agent. Consider B5, for which, in experiment [16], it took 2.77 nM to reach a half-maximal effect (EC50). The equilibrium dissociation constant (Kd) turned out to be 0.82 nM in [6] and 0.86 nM in experiment [7].
